# Molecular target: mouse B6 MHC class I antigens (H-2b: D^b or K^b) on the surface of RMA-S cells (mouse)
# Assay: binding of 9mer peptides within p117-139 to mouse B6 (H-2b) class I antigens; RMA-S assay as for Table XLVII
row,Binding Affinity to Mouse MHC Class I [%],Binder
1,2,QASSGQARM [WT1 peptide P119-127 (…)]
2,1,QARMFPNAP [WT1 peptide P124-132 (…)]
3,1,FPNAPYLPS [WT1 peptide P128-136 (…)]
4,1,ASSGQARMF [WT1 peptide P120-128 (…)]
5,1,PNAPYLPSC [WT1 peptide P129-137 (…)]
6,1,APYLPSCLE [WT1 peptide P131-139 (…)]
7,1,ARMFPNAPY [WT1 peptide P125-133 (…)]
8,1,SSGQARMFP [WT1 peptide P121-129 (…)]
9,2,SQASSGQAR [WT1 peptide P118-126 (…)]
10,2,PSQASSGQA [WT1 peptide P117-125 (…)]
11,2,MFPNAPYLP [WT1 peptide P127-135 (…)]
12,79,NAPYLPSCL [WT1 peptide P130-138 (…)]

# Molecular target: mouse B6 MHC class I antigens (H-2b: D^b or K^b) on the surface of RMA-S cells (mouse)
# Assay: RMA-S class I stabilisation, peptide 25 ug/ml, flow cytometry with FITC anti-D^b or anti-K^b, MFI against medium alone
row,Binding Affinity to Mouse MHC Class I (% increase of class I on RMA-S cells) [%],Binder
1,2.2,ALLPAVPSL [WT1 peptide p10-18 human (…)]
2,5.8,NLYQMTSQL [WT1 peptide p225-233 (…)]
3,0.8,YSSDNLYQM [WT1 peptide p221-229 (…)]
4,52,SCLESQPAI [WT1 peptide p136-144 human (…)]
5,33.6,CMTWNQMNL [WT1 peptide p235-243 (…)]
6,1.2,QMTSQLECM [WT1 peptide p228-236 (…)]
7,1,NQMNLGATL [WT1 peptide p239-247 (…)]
8,1.2,GCNKRYFKL [WT1 peptide p329-337 (…)]

# Reference: US20040018204A1
